Results from patent US20160031946A1.

Molecular target: OVA257-264 (SIINFEKL) presented by H-2Kb on dendritic cells (chicken; mouse)
Assay: cell-based or functional assay

Q: For “OT-1 T cell receptor (TCR of OT-1 TCR transgenic mice, specific for the OVA257-264 epitope)”, which proliferating CD8+ T cells (CFSE dilution), BMDCs loaded with ZEBRA-OVA257-264 after maturation is on record?
A: 70%

Q: What about the proliferating CD8+ T cells (CFSE dilution), BMDCs loaded with ZEBRA-OVA257-264 before maturation of the same substance?
A: 69%

Q: What about the proliferating CD8+ T cells (CFSE dilution, 5 days), DCs loaded with ZEBRA-OVA257-264 of the same substance?
A: 81%

Q: And the proliferating CD8+ T cells (CFSE dilution, 5 days), DCs pulsed with 10 uM Ova peptide (positive control)?
A: 93%
